The numbers were not newly measured in article PMC5408752, which cites them from elsewhere.

Data set [1] deals with NisA leader leader (Lactococcus lactis) (UniProt P13068). Nature of the data set: isothermal titration calorimetry.
For data set [2], the target named is NisA precursor (Lactococcus lactis) (UniProt P13068). Nature of the data set: isothermal titration calorimetry. (In general: In ITC the heat of successive injections is recorded.)
For data set [3], the target named is nisin (Lactococcus lactis) (UniProt P13068). Nature of the data set: NMR titration.

As usually defined, the Kd is the constant that tells how readily two partners part at equilibrium. As to NisC (from UniProt Q03202), the Kd in data set [1] is 3.8 µM; in data set [2] it was 2 µM.

For NisI CTD (from UniProt P42708), in data set [3], the Kd was 22 µM.
